The results in this text go back to PMC10786891, “Massively parallel profiling of RNA-targeting CRISPR-Cas13d”.

The chains are these.
T1: EsCas13d, nuclease-dead (Eubacterium siraeum, UniProt B0MS50, R295A;H300A;R849A;H854A)
T1 sequence: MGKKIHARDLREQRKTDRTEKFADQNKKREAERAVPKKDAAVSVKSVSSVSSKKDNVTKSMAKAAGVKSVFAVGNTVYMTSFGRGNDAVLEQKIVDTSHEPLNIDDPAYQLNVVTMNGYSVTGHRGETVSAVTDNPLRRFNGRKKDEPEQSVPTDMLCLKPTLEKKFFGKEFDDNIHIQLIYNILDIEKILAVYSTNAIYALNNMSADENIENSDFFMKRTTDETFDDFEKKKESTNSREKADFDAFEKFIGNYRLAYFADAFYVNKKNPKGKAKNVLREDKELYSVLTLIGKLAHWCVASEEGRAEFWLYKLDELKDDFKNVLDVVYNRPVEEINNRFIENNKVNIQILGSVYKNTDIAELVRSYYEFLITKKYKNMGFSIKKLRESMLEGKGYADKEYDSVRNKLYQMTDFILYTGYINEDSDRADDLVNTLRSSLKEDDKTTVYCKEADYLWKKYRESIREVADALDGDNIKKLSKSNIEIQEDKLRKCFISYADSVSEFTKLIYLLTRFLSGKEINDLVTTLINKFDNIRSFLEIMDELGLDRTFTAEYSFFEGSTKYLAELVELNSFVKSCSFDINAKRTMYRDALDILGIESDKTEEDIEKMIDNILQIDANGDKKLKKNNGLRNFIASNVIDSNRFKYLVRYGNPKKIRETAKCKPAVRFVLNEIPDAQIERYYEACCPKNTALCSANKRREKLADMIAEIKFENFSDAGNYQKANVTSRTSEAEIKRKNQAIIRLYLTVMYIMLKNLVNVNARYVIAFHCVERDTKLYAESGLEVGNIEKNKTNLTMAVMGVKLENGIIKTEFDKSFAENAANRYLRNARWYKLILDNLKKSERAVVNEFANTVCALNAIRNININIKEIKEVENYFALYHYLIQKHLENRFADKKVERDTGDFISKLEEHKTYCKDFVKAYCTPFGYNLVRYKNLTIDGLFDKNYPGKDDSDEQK

B1: target 1 insA 3' of 10,insG 3' of 3 (mixed)
RNA 1: CACCCGUGCAAAAAUGCAGGGGUCUAAAACUGAGCGGAUAACCUCUCUAUGG
RNA 2: GGGAAUGGAUCCACAUCUACGAAUUCGUACCAUAGAGAGGUUAAUCCGCUGCACCGAGAUCGGAAGAGCACACGU
B2: target 1 MT 5'PFS AAG 3'PFS AAG (mixed)
RNA 1: CACCCGUGCAAAAAUGCAGGGGUCUAAAACUGAGCGGAUAACCUCUCUAUGG
RNA 2: GGGAAUGGAUCCACAUCUACGAAUUCAAGCCAUAGAGAGGUUAUCCGCUCAAAGAGAUCGGAAGAGCACACGU
B3: target 1 MT 5'PFS GCA 3'PFS UCU (mixed)
RNA 1: CACCCGUGCAAAAAUGCAGGGGUCUAAAACUGAGCGGAUAACCUCUCUAUGG
RNA 2: GGGAAUGGAUCCACAUCUACGAAUUCGCACCAUAGAGAGGUUAUCCGCUCAUCUAGAUCGGAAGAGCACACGU
B4: target 1 MT 5'PFS AAA 3'PFS ACC (mixed)
RNA 1: CACCCGUGCAAAAAUGCAGGGGUCUAAAACUGAGCGGAUAACCUCUCUAUGG
RNA 2: GGGAAUGGAUCCACAUCUACGAAUUCAAACCAUAGAGAGGUUAUCCGCUCAACCAGAUCGGAAGAGCACACGU
B5: target 1 MT 5'PFS CAA 3'PFS CUC (mixed)
RNA 1: CACCCGUGCAAAAAUGCAGGGGUCUAAAACUGAGCGGAUAACCUCUCUAUGG
RNA 2: GGGAAUGGAUCCACAUCUACGAAUUCCAACCAUAGAGAGGUUAUCCGCUCACUCAGAUCGGAAGAGCACACGU
B6: target 1 MT 5'PFS UUA 3'PFS AUG (mixed)
RNA 1: CACCCGUGCAAAAAUGCAGGGGUCUAAAACUGAGCGGAUAACCUCUCUAUGG
RNA 2: GGGAAUGGAUCCACAUCUACGAAUUCUUACCAUAGAGAGGUUAUCCGCUCAAUGAGAUCGGAAGAGCACACGU
B7: target 1 MT 5'PFS CCU 3'PFS CGC (mixed)
RNA 1: CACCCGUGCAAAAAUGCAGGGGUCUAAAACUGAGCGGAUAACCUCUCUAUGG
RNA 2: GGGAAUGGAUCCACAUCUACGAAUUCCCUCCAUAGAGAGGUUAUCCGCUCACGCAGAUCGGAAGAGCACACGU
B8: target 1 MT 5'PFS UCA 3'PFS CCC (mixed)
RNA 1: CACCCGUGCAAAAAUGCAGGGGUCUAAAACUGAGCGGAUAACCUCUCUAUGG
RNA 2: GGGAAUGGAUCCACAUCUACGAAUUCUCACCAUAGAGAGGUUAUCCGCUCACCCAGAUCGGAAGAGCACACGU
B9: target 1 MT 5'PFS UUA 3'PFS AUA (mixed)
RNA 1: CACCCGUGCAAAAAUGCAGGGGUCUAAAACUGAGCGGAUAACCUCUCUAUGG
RNA 2: GGGAAUGGAUCCACAUCUACGAAUUCUUACCAUAGAGAGGUUAUCCGCUCAAUAAGAUCGGAAGAGCACACGU
B10: target 1 MT 5'PFS CCU 3'PFS AGA (mixed)
RNA 1: CACCCGUGCAAAAAUGCAGGGGUCUAAAACUGAGCGGAUAACCUCUCUAUGG
RNA 2: GGGAAUGGAUCCACAUCUACGAAUUCCCUCCAUAGAGAGGUUAUCCGCUCAAGAAGAUCGGAAGAGCACACGU
B11: target 1 MT 5'PFS AAA 3'PFS ACU (mixed)
RNA 1: CACCCGUGCAAAAAUGCAGGGGUCUAAAACUGAGCGGAUAACCUCUCUAUGG
RNA 2: GGGAAUGGAUCCACAUCUACGAAUUCAAACCAUAGAGAGGUUAUCCGCUCAACUAGAUCGGAAGAGCACACGU
B12: target 1 MT 5'PFS CCG 3'PFS CAC (mixed)
RNA 1: CACCCGUGCAAAAAUGCAGGGGUCUAAAACUGAGCGGAUAACCUCUCUAUGG
RNA 2: GGGAAUGGAUCCACAUCUACGAAUUCCCGCCAUAGAGAGGUUAUCCGCUCACACAGAUCGGAAGAGCACACGU
B13: target 1 MT 5'PFS UUA 3'PFS AUC (mixed)
RNA 1: CACCCGUGCAAAAAUGCAGGGGUCUAAAACUGAGCGGAUAACCUCUCUAUGG
RNA 2: GGGAAUGGAUCCACAUCUACGAAUUCUUACCAUAGAGAGGUUAUCCGCUCAAUCAGAUCGGAAGAGCACACGU
B14: target 1 MT 5'PFS AGG 3'PFS ACU (mixed)
RNA 1: CACCCGUGCAAAAAUGCAGGGGUCUAAAACUGAGCGGAUAACCUCUCUAUGG
RNA 2: GGGAAUGGAUCCACAUCUACGAAUUCAGGCCAUAGAGAGGUUAUCCGCUCAACUAGAUCGGAAGAGCACACGU
B15: target 1 insG 3' of 18,insG 3' of 10 (mixed)
RNA 1: CACCCGUGCAAAAAUGCAGGGGUCUAAAACUGAGCGGAUAACCUCUCUAUGG
RNA 2: GGGAAUGGAUCCACAUCUACGAAUUCGUACCAUAGGAGAGGUUGAUCCGCUCACCGAGAUCGGAAGAGCACACGU
B16: target 1 MT 5'PFS AAA 3'PFS ACA (mixed)
RNA 1: CACCCGUGCAAAAAUGCAGGGGUCUAAAACUGAGCGGAUAACCUCUCUAUGG
RNA 2: GGGAAUGGAUCCACAUCUACGAAUUCAAACCAUAGAGAGGUUAUCCGCUCAACAAGAUCGGAAGAGCACACGU
B17: target 1 MT 5'PFS AAA 3'PFS ACG (mixed)
RNA 1: CACCCGUGCAAAAAUGCAGGGGUCUAAAACUGAGCGGAUAACCUCUCUAUGG
RNA 2: GGGAAUGGAUCCACAUCUACGAAUUCAAACCAUAGAGAGGUUAUCCGCUCAACGAGAUCGGAAGAGCACACGU
B18: target 1 MT 5'PFS GCA 3'PFS UCA (mixed)
RNA 1: CACCCGUGCAAAAAUGCAGGGGUCUAAAACUGAGCGGAUAACCUCUCUAUGG
RNA 2: GGGAAUGGAUCCACAUCUACGAAUUCGCACCAUAGAGAGGUUAUCCGCUCAUCAAGAUCGGAAGAGCACACGU
B19: target 1 MT 5'PFS UUA 3'PFS CGC (mixed)
RNA 1: CACCCGUGCAAAAAUGCAGGGGUCUAAAACUGAGCGGAUAACCUCUCUAUGG
RNA 2: GGGAAUGGAUCCACAUCUACGAAUUCUUACCAUAGAGAGGUUAUCCGCUCACGCAGAUCGGAAGAGCACACGU
B20: target 1 insU 3' of 13,insU 3' of 13 (mixed)
RNA 1: CACCCGUGCAAAAAUGCAGGGGUCUAAAACUGAGCGGAUAACCUCUCUAUGG
RNA 2: GGGAAUGGAUCCACAUCUACGAAUUCGUACCAUAGAGAGUUGUUAUCCGCUCACCGAGAUCGGAAGAGCACACGU
B21: target 1 MT 5'PFS GCA 3'PFS UCG (mixed)
RNA 1: CACCCGUGCAAAAAUGCAGGGGUCUAAAACUGAGCGGAUAACCUCUCUAUGG
RNA 2: GGGAAUGGAUCCACAUCUACGAAUUCGCACCAUAGAGAGGUUAUCCGCUCAUCGAGAUCGGAAGAGCACACGU
B22: target 1 MT 5'PFS GAG 3'PFS CGA (mixed)
RNA 1: CACCCGUGCAAAAAUGCAGGGGUCUAAAACUGAGCGGAUAACCUCUCUAUGG
RNA 2: GGGAAUGGAUCCACAUCUACGAAUUCGAGCCAUAGAGAGGUUAUCCGCUCACGAAGAUCGGAAGAGCACACGU
B23: target 1 MT 5'PFS GAG 3'PFS CGG (mixed)
RNA 1: CACCCGUGCAAAAAUGCAGGGGUCUAAAACUGAGCGGAUAACCUCUCUAUGG
RNA 2: GGGAAUGGAUCCACAUCUACGAAUUCGAGCCAUAGAGAGGUUAUCCGCUCACGGAGAUCGGAAGAGCACACGU

The data set concerns the target T1, EsCas13d, nuclease-dead. In words: crRNA (strand 1, pre-loaded); Mg2+; 40 mM Tris-HCl pH 7.5, 150 mM NaCl, 6 mM MgCl2, 1 mM DTT, 0.1% Tween-20, 0.2 mg/ml BSA; 25 C; 10 min per concentration, then washed. The note with it: tags: His6-TwinStrep-SUMO cleaved; N-terminal SNAP kept (SNAP-Surface 488); label: 3' end held by stalled T7 RNA polymerase.
B1 displayed a dissociation constant (Kd) of 7.18 ± 0.25 nM.

B2: the Kd is 20.5 ± 4.5 nM.

B3: binding was put at a Kd of 10.6 ± 2.55 nM.

In the case of B4, the Kd worked out at 42 ± 13.5 nM.

Turning to B5, the dissociation constant (Kd) is around 25 nM.

Molecule B6 returned a dissociation constant Kd of 64.5 ± 23 nM.

Regarding B7, the dissociation constant Kd was around 15.5 nM.

For the molecule B8, the dissociation constant (Kd) is around 69 nM.

Turning to B9, the Kd was found to be 77 ± 25 nM.

As to B10, the Kd is 31.5 ± 14.5 nM. Against the preceding molecule, the Kd is about 2.4-fold lower.

For the molecule B11, the Kd is 12.1 ± 2.6 nM. This Kd lies about 2.6-fold lower than the previous one.

In turn, B12 came in with a Kd of 6.45 ± 2.75 nM.

Molecule B13 showed a Kd of 20.5 ± 5 nM.

In turn, B14 gave a dissociation constant (Kd) of 42 ± 12 nM. Compared with the last molecule, the Kd is about 2-fold higher.

Molecule B15 yielded a Kd of 61 ± 15 nM.

Take B16: binding was put at a Kd of 29.5 ± 14 nM. This Kd is about 2.1-fold lower than that of the molecule before.

The molecule B17 gave an equilibrium dissociation constant (Kd) of 18.6 ± 4.45 nM.

On to B18, for which the Kd amounted to 11.8 ± 2.9 nM.

B19 yielded a Kd of 18 ± 7 nM.

Turning to B20, the Kd turned out to be 6.5 ± 0.6 nM.

B21 displayed a Kd of 13.7 ± 2.4 nM.

In the case of B22, the Kd was around 49 nM.

In the case of B23, the Kd is around 100 nM.
